The test concerns the target Sc eIF4E (residues T25–L213), His6 tag removed (Saccharomyces cerevisiae) (UniProt P07260). Put plainly: ITC. On the technique in general: ITC needs no label: the signal is the heat of the interaction.
Chain of Sc eIF4E (residues T25–L213), His6 tag removed (Saccharomyces cerevisiae) (P07260 25-213): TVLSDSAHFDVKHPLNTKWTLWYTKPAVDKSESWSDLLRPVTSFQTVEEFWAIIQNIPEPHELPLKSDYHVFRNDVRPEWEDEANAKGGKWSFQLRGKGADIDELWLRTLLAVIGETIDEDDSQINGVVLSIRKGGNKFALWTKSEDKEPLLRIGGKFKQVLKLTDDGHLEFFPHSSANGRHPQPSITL
Chain of Sc p20 canonical motif (C)-GB1 (domain or fragment) (P12962 whole entry, the tested form may be a part): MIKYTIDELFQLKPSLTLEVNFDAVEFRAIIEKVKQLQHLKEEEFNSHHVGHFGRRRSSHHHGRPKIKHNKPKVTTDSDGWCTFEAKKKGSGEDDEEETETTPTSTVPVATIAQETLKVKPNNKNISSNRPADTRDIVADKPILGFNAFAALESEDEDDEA
Broadly, the Kd is a measure of binding affinity in units of concentration. The low end stands for tighter binding, the high end for weaker binding. Take “Sc eIF4G canonical motif (C)-GB1 (domain or fragment)”: the Kd was 2000 nM.

“Sc eIF4G (residues V448–N500; C+L+NC)-GB1 (from UniProt P39935 448-500) (domain or fragment)” had a Kd of 70 nM.

On to “Sc p20 canonical motif (C)-GB1 (domain or fragment)”, for which the Kd was found to be 20 nM.

Source of the values: paper PMC6061780.
